# According to US20230357323A1, “HUMAN IL23 RECEPTOR BINDING POLYPEPTIDES” (University of Washington, priority 2020, published 2023):
# Read-outs that look alike come from different tables or passages of the source.
# Columns and labels:
# human IL-23R (hIL-23R) = target: T1, human IL-23R (hIL-23R) (Homo sapiens, UniProt Q5VWK5); assay: Biolayer interferometry (BLI) binding to hIL-23R; settings: biolayer interferometry binding titrations; read-out: affinity (KD) for hIL-23R
# T1 construct: his tag (C); purchased
# T1 sequence (Q5VWK5 24-629): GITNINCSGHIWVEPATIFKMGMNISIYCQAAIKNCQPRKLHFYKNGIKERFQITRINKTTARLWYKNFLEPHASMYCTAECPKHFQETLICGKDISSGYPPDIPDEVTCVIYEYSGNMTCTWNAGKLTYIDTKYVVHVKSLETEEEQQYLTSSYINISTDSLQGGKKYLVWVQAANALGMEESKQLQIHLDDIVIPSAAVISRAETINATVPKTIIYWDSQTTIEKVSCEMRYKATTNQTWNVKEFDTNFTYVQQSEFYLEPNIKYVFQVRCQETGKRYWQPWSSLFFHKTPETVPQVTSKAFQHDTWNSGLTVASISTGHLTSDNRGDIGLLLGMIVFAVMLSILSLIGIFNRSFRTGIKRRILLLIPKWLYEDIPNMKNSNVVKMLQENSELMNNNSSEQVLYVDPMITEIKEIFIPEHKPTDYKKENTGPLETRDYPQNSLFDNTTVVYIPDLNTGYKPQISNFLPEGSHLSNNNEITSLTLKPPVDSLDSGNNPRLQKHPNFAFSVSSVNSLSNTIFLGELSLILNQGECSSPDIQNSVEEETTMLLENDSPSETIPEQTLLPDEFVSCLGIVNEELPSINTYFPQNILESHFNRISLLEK
# From the text: Two designs, 23R_A (SEQ ID NO:10) and 23R_B (SEQ ID NO:110), were highly enriched in the final selection pool and were chosen for further biochemical characterization. Both designs are 3-helix bundles (54 and 53 residues, respectively) which incorporate the native Trp hotspot at the N-terminal end of a helix such that IL-23R residue D118 forms a helix-capping hydrogen bond with the Trp hotspot's free backbone amine, similar to the αD helix of p19 (FIG. 1D). In both designs, this central binding helix has a larger interaction surface with hIL-23R, mediated by additional de novo hotspots, than p19. […]
# Variants were first screened for relative binding to hIL-23R with biolayer interferometry (BLI). hIL-23R was immobilized on the BLI sensor tips and binding to each variant in solution at a constant concentration (50 nM) was measured to qualitatively determine relative performance of the variants. For the best-performing variants, binding constants (KD, including kon, and koff) were quantitatively determined with BLI titration experiments in triplicate. […]
# Qualitative and quantitative assessment of binding affinity was performed using biolayer interferometry (ForteBio Octet™ […] and associated software for analysis). […] Kinetic constants were determined from the mathematical fit of a 1:1 binding model.
# [1] = Proteolytic stability in simulated intestinal fluid (SIF), SDS PAGE; format: in vitro ADME; settings: for SIF t1/2: pH 6.5
# From the text: (§1) While resistance to high heat is important for manufacturing and storage, and resistance to chemical denaturant is a good proxy for stability overall, any oral, gut-restricted IL-23R inhibitor will preferably survive the harsh conditions of the gastrointestinal tract, including high acidity and physiological proteases, to reach the site of action intact. To determine feasibility of oral administration, we therefore more directly assessed the stability of our designed IL-23R inhibitors in simulated gastric fluid (SGF), including the protease pepsin at pH 2, and simulated intestinal fluid (SIF), including proteases trypsin and chymotrypsin at pH 6.5. Proteolysis was assessed qualitatively by SDS PAGE at timepoints up to 24 hours.
# Several reported formulations of simulated intestinal fluid show variable proteolytic activity, and protease activity of human intestinal fluid has not been thoroughly studied. Therefore, as a benchmark for SIF stability, we directly compared our designs to V565-38F, an oral, gut-restricted nanobody inhibitor of TNFa currently in a phase 2 clinical trial for Crohn's disease, in SIF with enzyme concentrations sufficient to degrade this molecule over 24 hours. Design variants with proteolytic stability greater than or equal to V565-38F are likely to be sufficiently stable to enable oral therapy.
# (§2) Simulated intestinal fluid (SIF) was prepared as recommended by Jantratid et al. (termed FaSSIFv2) with the addition of proteases trypsin and chymotrypsin each at 30 μg/mL.^18 This composition is denoted as “1x SIF” in the text. In some instances, designed proteins (pure recombinant protein, or yeast libraries as above) or the comparator V565-38F were so stable that minimal degradation could be detected at the maximum duration (24 hours for SDS PAGE experiments, 90 minutes for cytometry experiments). Therefore, we increased the concentrations of both trypsin and chymotrypsin to increase the rate of digestion; these solutions are denoted as “#x SIF”, where for example “2x SIP” denotes a 2-fold increase in concentration of both trypsin and chymotrypsin (to 60 μg/mL), Simulated gastric fluid was prepared as follows: 600 ug/mL pepsin and 34.2 mM NaCl in water, with […] added to adjust pH to 2.
# For qualitative assessment of proteolytic stability, pure recombinant proteins were digested at 37° C. for 24 hours and proteolytic cleavage assessed by SDS PAGE. From concentrated stock solutions, recombinant proteins were added to stock SGF and SIF solutions to a final concentration of 0.1 mg/mL. Timepoints were taken at 0, 5, 15, 30, 60 minutes, 4 and 24 hours; at each timepoint, samples were removed and immediately mixed with load dye and boiled for 5 minutes at 95° C. to quench protease activity. 5 ug protein (based on initial digest concentration of 0.1 mg/mL) per timepoint were run on 16% Tris-tricine polyacrylamide gels.
# IL-23R [2] = target: T2, IL-23R (Homo sapiens, UniProt Q5VWK5); assay: Surface plasmon resonance (SPR) binding affinity to hIL-23R; set-up: his tag (C); purchased
# T2 sequence (Q5VWK5 24-629): T1 sequence (Q5VWK5 24-629)
# [3] = Proteolytic stability in simulated gastric fluid (SGF), SDS PAGE; format: in vitro ADME
# From the text: as §1, §2
# For qualitative assessment of proteolytic stability, pure recombinant proteins were digested at 37° C. for 24 hours and proteolytic cleavage assessed by SDS PAGE. From concentrated stock solutions, recombinant proteins were added to stock SGF and SIF solutions to a final concentration of 0.1 mg/mL. […]
# IL-23R [4] = target: T2, IL-23R; assay: IL-23-mediated cell signaling assay (Promega IL-23 Bioassay luciferase reporter cells); format: cell-based; settings: IL-23 reporter assay; C-terminal versus N-terminal 6-histidine tag
# Procedure: FIG. 7. Designed IL-23R inhibitor block IL-23-mediated cell signaling in vitro. Cells engineered to express luciferase downstream of IL-23R (Promega) were pre-incubated for 30 minutes with a titration of each inhibitor, then stimulated with 8 ng/mL human IL-23 cytokine for 6 hours. Luciferase substrate was added, luminescence read, and % inhibition of signaling calculated relative to wells with no inhibitor added. IC50 was calculated using linear regression to fit dose response; values are shown above alongside fold increase in potency relative to a competitor molecule PTG compound C.
# Next, we assessed the ability of IL-23R inhibitors to block IL-23-mediated cell signaling. […] IC50 values were determined using linear regression to fit dose response.
# Commercial IL-23 reporter cells (Promega IL-23 Bioassay) expressing luciferase downstream of IL-23R were used to assess inhibition of IL-23-mediated cell signaling. Cells were plated in the inner wells of 96-well tissue culture treated white plates suitable for reading luminescence. Cells were pre-incubated for 30 minutes with a dilution series of each inhibitor, then treated with the EC80 stimulatory concentration of recombinant human IL-23 cytokine determined in preceding experiments (8 ng/mL; R&D 1290-IL). After 6 hours incubation with human IL-23, luciferase substrate was added and luminescence read. […]
# [5] = trypsin and chymotrypsin, 37° C., SDS PAGE
substance,measurement,setting,value
IL-23 cytokine: native ligand; heterodimeric cytokine composed of the p19 subunit and the p40 subunit,Kd,human IL-23R (hIL-23R),1.7 nM
MEPEKYLRELCKKYYEGKLSQQEAVEEIRKYARKKGLEAWKLVWYFMQCVKRDI [rA11dslf02],SIF t1/2,[1]; simulated gi fluid,60 min
NLWQIFYLLNTCIKRTGDPTCKKLKKALRECEKKGDEKACKELAKKAMKYIRS (NLWQIFYLLNTCIKRTGDPTCKKLKKALRECLKKGDEKACKELAKKAMKYIRS) [B04dslf02],SIF t1/2,[1]; [5],5 to 15 min
PEPEKYLQELCKKYYEGKLSQQEAVEEIRKYARKWGLEAWKLVWYFMQCVKRDI [rA11dslf02_M1P_R8Q_K35W],Kd,IL-23R [2],0.075 nM
same,stability in SIF compared to V565-38F,[1]; SIF with enzyme concentrations sufficient to degrade V565-38F over 24 hours (3x SIF),similarly stable
same,SIF t1/2,[1]; [5],240 to 1440 min
same,stability in SGF compared to V565-38F,[3]; SGF,much more stable
PLWQVFYLLNTCIKRTGDPTCKKLAKALRECLKKGDLKACNELADKAVKYINS [B04dslf02IB],Kd,IL-23R [2],< 0.001 nM
same,effect of C-terminal 6-histidine tag on potency,IL-23R [4],no effect on potency
same,effect of C-terminal 6-histidine tag on proteolytic stability,"[1]; SGF or SIF up to 24 hours, C-terminal versus N-terminal 6-histidine tag",greatly enhances the proteolytic stability
same,SIF t1/2,[1]; [5],30 to 60 min
mB09dslf01-T48I: best mIL-23R inhibitor after optimization for stability and mIL-23R affinity; T48I variant of mB09dslf01; no SEQ ID given (NLWQIFYCLLTCIKRTGDPTCKKLLKALQEAVKKNDEKAVKELAKKAIKYCRSHHHHHH),3x SIF t1/2,[1]; simulated gi fluid,greater than 24 hours
same,stability in SGF compared to V565-38F,[3],more stable
same,SGF t1/2,"[3]; simulated gi fluid, pH 2",greater than 24 hours
